This note sets out measurements from paper PMC7415566 (Structure (London, England : 1993), 2020).

The target of assay [1] is T1, FAM46C E166Q/F193D/F206D (residues 16-350) (human, UniProt Q5VWP2 16-350, E166Q | F193D | F206D).
T1 sequence (looked up): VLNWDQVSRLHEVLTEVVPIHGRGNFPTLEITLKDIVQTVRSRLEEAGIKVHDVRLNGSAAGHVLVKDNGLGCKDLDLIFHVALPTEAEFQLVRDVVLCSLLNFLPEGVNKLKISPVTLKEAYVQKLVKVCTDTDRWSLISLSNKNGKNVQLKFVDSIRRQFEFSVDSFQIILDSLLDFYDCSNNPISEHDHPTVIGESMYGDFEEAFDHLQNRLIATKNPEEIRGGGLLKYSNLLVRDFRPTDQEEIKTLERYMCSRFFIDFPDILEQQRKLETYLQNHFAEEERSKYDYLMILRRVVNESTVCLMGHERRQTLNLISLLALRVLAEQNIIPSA
Put plainly: crystal structure.

Assay [2] has as its target T2, GST-tagged FAM46D (residues 7-340) (human, UniProt Q8NEK8 7-340).
T2 sequence (looked up): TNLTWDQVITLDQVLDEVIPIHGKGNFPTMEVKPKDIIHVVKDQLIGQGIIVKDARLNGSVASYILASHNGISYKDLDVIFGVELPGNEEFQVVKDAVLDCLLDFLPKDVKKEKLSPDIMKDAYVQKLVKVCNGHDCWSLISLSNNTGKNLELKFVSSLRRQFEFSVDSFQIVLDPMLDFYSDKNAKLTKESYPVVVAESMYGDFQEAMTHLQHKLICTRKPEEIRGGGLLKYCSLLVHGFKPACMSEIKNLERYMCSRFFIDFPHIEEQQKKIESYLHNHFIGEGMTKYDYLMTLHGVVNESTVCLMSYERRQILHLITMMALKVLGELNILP
Nature of the assay: pull-down.

The target in assay [3] is T3, GST-tagged FAM46C (residues 16-358) (human, UniProt Q5VWP2 16-358).
T3 sequence (looked up): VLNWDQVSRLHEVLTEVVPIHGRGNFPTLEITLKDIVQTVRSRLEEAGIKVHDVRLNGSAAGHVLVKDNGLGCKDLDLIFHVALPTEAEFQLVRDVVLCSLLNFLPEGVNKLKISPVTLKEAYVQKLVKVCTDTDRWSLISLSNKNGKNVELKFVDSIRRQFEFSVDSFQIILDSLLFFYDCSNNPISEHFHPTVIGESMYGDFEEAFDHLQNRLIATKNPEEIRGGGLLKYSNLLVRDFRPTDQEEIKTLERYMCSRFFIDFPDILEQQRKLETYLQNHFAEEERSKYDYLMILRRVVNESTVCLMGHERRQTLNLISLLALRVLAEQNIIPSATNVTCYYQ
Put plainly: pull-down.

Assay [4] addresses T4, human FAM46C (residues 16-358), NTase domain (human, UniProt Q5VWP2 16-358).
T4 sequence (looked up): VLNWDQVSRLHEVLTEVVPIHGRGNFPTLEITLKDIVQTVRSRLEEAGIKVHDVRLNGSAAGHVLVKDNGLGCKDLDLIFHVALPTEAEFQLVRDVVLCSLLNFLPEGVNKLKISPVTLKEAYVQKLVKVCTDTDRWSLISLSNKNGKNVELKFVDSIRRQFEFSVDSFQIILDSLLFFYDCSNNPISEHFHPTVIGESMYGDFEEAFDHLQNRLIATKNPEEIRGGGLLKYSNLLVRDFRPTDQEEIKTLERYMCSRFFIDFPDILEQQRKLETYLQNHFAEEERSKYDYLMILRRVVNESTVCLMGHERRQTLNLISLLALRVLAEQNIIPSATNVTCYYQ
Put plainly: crystal structure.

B1: CPB1-2 of human PLK4 (residues 580-810) (domain or fragment, UniProt O00444 580-810, looked up)
chain: WGYQNRTLRSITSPLVAHRLKPIRQKTKKAVVSILDSEEVCVELVKEYASQEYVKEVLQISSDGNTITIYYPNGGRGFPLADRPPSPTDNISRYSFDNLPEKYWRKYQYASRFVQLVRSKSPKITYFTRYAKCILMENSPGADFEVWFYDGVKIHKTEDFIQVIEKTGKSYTLKSESEVNSLKEEIKMYMDHANEGHRICLALESIISEEERKTRSAPFFPIIIGRKPGST
Consider B1, for which the binding result in assay [1], in assay [2], in assay [3] and in assay [4] was “binds” each time.

B2: CPB1-2 of human PLK4 (residues 580-810) N669R (domain or fragment, UniProt O00444 580-810, looked up)
chain: WGYQNRTLRSITSPLVAHRLKPIRQKTKKAVVSILDSEEVCVELVKEYASQEYVKEVLQISSDGNTITIYYPNGGRGFPLADRPPSPTDRISRYSFDNLPEKYWRKYQYASRFVQLVRSKSPKITYFTRYAKCILMENSPGADFEVWFYDGVKIHKTEDFIQVIEKTGKSYTLKSESEVNSLKEEIKMYMDHANEGHRICLALESIISEEERKTRSAPFFPIIIGRKPGST
Regarding B2, the binding result in assay [3] was “binds”.
